Results taken from US20240287172A1 (SCIRHOM, published 2024).
Residue numbers refer to the chain shown, from its start.

B1: antibody 34 (antibody, V domains shown)
VH: QVTLKESGPGILQPSQTLSLTCSFSGFSLSTFSLGVGWIRQSSGKGLEWLAHIWWDDEKYYNPALKSRLTISKDTSKNQVFLKIANVDAADTATYYCARAYYSKSYYALDYWGQGTSVTVSS
VL: DIQMTQSPSSLSASLGERVSLTCRASQEISGYLSWLQQKPDGTIKRLIYAASTLDSGVPKRFSGSRSGSDYSLAISSLESEDFADYYCLQYANFPFTFGSGTKLEIK
notes: mouse IgG, kappa light chain; also called clone #34; purified antibody 34
B2: antibody 42 (antibody, V domains shown)
VH: QVTLKESGPGILQPSQTLSLTCSLSGFSLSTFGRGVGWIRQPSGKGLEWLAHIWWDDEKYYNPALKSRLTISKDTSKNQVFLRIANVDTADTATYYCARIQNYGSNYWYFDVWGTGTTVTVSS
VL: LIVLTQSPAIMSASPGEKVTMTCGATSRISYMFWYQQKPGSSPRVLIYDTSNLASGVPVRFSGSGSGTSYSLTISRVEAEDVATYYCQQWNSYPLTFGAGTKLELK
notes: mouse IgG, kappa light chain; also called clone #42; purified antibody 42
B3: antibody 43 (antibody, V domains shown)
VH: B2 VH with T3A, L24F, R34M, P42S, H52N, E58D, T75A, V80A, R83K, Q101G
VL: B2 VL with L1Q, K18R, G24S, T26N, F33Y, V45L, V77M, V82A, Y86N, N91S
notes: mouse IgG, kappa light chain; also called clone #43; purified antibody 43
B4: antibody 44 (antibody, V domains shown)
VH: B2 VH with L24F, R34M, G44E, E58D, V80I, R83K, A85T, D91E, A98S, Q101G
VL: QIVLTQSPAVMSASPGEKVTMTCTASSSVYYMYWYQQTPGSSPRLLIYDTSNLASGVPVRFSGSGSGTSYSLTISRMEAEDAATYYCQQWNTYPLTFGAGTKLELK
notes: mouse IgG, kappa light chain; also called clone #44; purified antibody 44
B5: antibody 48 (antibody, V domains shown)
VH: QVQLQQSGTELVRPGTSVKVSCKASGYAFTNYLIEWVKQRPGQGLEWIGVINPGSGFTKYNEKFKGKATLTADKSSSTVYMHLSSLTSEDSAVYFCARGLYRAMDYWGQGTSVTVSS
VL: DIQMTQSPASQSASLGESVTITCLASQTIATWLAWYQQKPGKSPQLLIYGATTLADGVPSRFSGGGSGTKFSFKISSLQAEDFVSYYCQQLYSTPYTFGGGTKLEIK
notes: mouse IgG, kappa light chain; also called clone #48; purified antibody 48
B6: antibody 50 (antibody, V domains shown)
VH: B5 VH with T9A, T16A, T30S, V79A, H82Q
VL: B5 VL with A30G, G50A, T52A, T53S, S85N, L91I
notes: mouse IgG, kappa light chain; also called clone #50; purified antibody 50

Columns and labels:
[1] = molecular target: T1, hiR1-FL-WT-T7 (human, UniProt Q96CC6 1-855); test: FACS on MEF-DKO cells
T1 construct: on MEF-DKO cells
T1 sequence: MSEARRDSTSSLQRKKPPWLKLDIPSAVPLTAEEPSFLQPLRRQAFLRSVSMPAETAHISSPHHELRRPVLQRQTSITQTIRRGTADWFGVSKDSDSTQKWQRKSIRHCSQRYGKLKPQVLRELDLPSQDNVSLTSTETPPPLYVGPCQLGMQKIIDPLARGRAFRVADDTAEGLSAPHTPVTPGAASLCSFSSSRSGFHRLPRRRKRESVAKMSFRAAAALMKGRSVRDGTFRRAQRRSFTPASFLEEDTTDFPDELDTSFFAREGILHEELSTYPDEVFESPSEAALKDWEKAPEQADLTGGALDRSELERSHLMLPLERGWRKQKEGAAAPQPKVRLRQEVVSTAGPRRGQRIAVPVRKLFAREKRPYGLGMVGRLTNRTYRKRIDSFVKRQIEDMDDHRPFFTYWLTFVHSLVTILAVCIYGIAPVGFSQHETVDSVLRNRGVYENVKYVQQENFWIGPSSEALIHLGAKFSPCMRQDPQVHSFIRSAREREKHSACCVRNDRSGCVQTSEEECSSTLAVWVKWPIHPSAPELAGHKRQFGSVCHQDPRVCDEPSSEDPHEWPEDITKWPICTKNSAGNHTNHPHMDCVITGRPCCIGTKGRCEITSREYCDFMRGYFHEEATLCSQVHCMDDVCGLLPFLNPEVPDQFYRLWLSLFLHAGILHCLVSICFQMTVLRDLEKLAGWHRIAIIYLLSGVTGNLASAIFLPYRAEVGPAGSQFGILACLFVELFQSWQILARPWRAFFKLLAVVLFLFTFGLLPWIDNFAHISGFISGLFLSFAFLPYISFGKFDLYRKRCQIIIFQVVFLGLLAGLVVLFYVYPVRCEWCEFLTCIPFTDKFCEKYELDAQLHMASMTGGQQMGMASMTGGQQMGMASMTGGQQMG

[2] = molecular target: T2, hiR2-FL-F523W-T7 (human, UniProt Q6PJF5 1-856); test: FACS, MEF-DKO cells, 3 µg/ml
T2 sequence: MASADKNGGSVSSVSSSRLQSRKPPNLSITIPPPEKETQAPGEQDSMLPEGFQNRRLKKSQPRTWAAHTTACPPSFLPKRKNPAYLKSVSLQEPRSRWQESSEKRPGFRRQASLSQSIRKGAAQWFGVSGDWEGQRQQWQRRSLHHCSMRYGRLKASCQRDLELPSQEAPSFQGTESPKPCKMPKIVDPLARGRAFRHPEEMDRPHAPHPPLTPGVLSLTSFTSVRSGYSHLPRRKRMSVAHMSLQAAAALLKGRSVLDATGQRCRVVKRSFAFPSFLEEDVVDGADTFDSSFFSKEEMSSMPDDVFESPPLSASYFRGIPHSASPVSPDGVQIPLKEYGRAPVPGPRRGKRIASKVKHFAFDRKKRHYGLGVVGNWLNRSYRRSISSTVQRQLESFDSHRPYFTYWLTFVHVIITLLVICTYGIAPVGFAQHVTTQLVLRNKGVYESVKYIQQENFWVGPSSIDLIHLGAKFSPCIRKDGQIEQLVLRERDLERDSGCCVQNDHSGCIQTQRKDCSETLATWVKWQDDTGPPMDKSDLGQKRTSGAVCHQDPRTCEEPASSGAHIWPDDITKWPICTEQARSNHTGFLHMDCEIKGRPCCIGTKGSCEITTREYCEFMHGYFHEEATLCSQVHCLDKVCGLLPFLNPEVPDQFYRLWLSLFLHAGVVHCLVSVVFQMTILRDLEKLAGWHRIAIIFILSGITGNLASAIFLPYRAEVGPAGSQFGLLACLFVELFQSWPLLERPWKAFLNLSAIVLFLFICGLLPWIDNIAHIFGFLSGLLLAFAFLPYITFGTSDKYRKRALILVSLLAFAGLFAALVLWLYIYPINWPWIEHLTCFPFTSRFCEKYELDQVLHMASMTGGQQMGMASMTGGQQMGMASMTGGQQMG

[3] = molecular target: T3, hiR2-FL-G531S-T7 (human, UniProt Q6PJF5 1-856); test: FACS, MEF-DKO cells, 3 µg/ml
T3 sequence: T2 sequence with W523F, G531S

Binder | binding result [1] | loss of binding vs wild type [2] [%] | loss of binding vs wild type [3] [%]
B1 | no binding (tested: 3 µg/ml) |  | 
B2 | no binding (tested: 3 µg/ml) |  | 
B3 | no binding (tested: 3 µg/ml) |  | 
B4 | no binding (tested: 3 µg/ml) |  | 
B5 |  | ≥ 30 | ≥ 30
B6 | no binding (tested: 3 µg/ml) | ≥ 30 | ≥ 30
